Our source for the abundance fitness values is the Human Domainome abundance scans (Beltran et al. 2025).

± gives the uncertainty stated by the source.

B1: Tudor domain-containing protein 3, residues 554 to 611; numbered along this chain, Q9H7E2 (parent)
chain: KMWKPGDECFALYWEDNKFYRAEVEALHSSGMTAVVKFIDYGNYEEVLLSNIKPIQTE

Variants of B1 are the subject of this data set. Briefly: abundance fitness (aPCA) (normalised: wild type 0, dead -1); higher = more abundant; growth selection in yeast, the domain comes from the species named. To be noted: Homo sapiens.
Consider I52A, for which the abundance fitness was -0.824 ± 0.093.

As for I52C, the abundance fitness is -0.37 ± 0.077.

Regarding N17T, the abundance fitness was -0.366 ± 0.084.

As for N17G, the abundance fitness was -0.105 ± 0.059.

In the case of N17I, the abundance fitness is -0.742 ± 0.16.

For the variant N17F, the abundance fitness was -0.65 ± 0.23.

Take N17R: the abundance fitness was -0.084 ± 0.068.

Consider A26D, for which the abundance fitness was -0.165 ± 0.22.

In the case of A26E, the abundance fitness worked out at 0.211 ± 0.17.

A26V: the abundance fitness is -0.128 ± 0.11.

On to A26S, for which the abundance fitness was 0.106 ± 0.095.

For A26W, the abundance fitness was -0.195 ± 0.12.

Consider A26F, for which the abundance fitness was found to be 0.101 ± 0.21.

Regarding A26M, the abundance fitness is -0.065 ± 0.14.

In the case of M2G, the abundance fitness was -0.052 ± 0.068.

In the case of M2V, the abundance fitness was -0.164 ± 0.07.

In the case of M2F, the abundance fitness was -0.194 ± 0.15.

For the variant M2K, the abundance fitness was -0.36 ± 0.11.

Regarding K37T, the abundance fitness is -0.923 ± 0.14.

K37W: the abundance fitness is -0.635 ± 0.085.

K37G: the abundance fitness is -0.833 ± 0.065.

Regarding K37F, the abundance fitness was -0.218 ± 0.15.

Regarding E8G, the abundance fitness was -0.264 ± 0.054.

For E8L, the abundance fitness was -0.016 ± 0.075.

For E8I, the abundance fitness is 0.056 ± 0.1.

On to E8C, for which the abundance fitness is -0.066 ± 0.086.

In the case of E8F, the abundance fitness is -0.118 ± 0.12.

For E8M, the abundance fitness was -0.046 ± 0.12.

For C9L, the abundance fitness is -0.913 ± 0.086.

For the variant C9D, the abundance fitness was -1.03 ± 0.23.

Turning to C9S, the abundance fitness is -0.942 ± 0.1.

For the variant C9E, the abundance fitness was -0.887 ± 0.14.

Regarding C9G, the abundance fitness was -0.869 ± 0.076.

Take S29E: the abundance fitness was -0.008 ± 0.081.

As for S29C, the abundance fitness was -0.116 ± 0.079.

For the variant S29T, the abundance fitness is -0.012 ± 0.074.

Regarding S29W, the abundance fitness was -0.368 ± 0.076.

Consider S29P, for which the abundance fitness is -0.03 ± 0.088.

Regarding S29K, the abundance fitness was -0.028 ± 0.082.

As for S29N, the abundance fitness is -0.062 ± 0.12.

As for Q56E, the abundance fitness came out at 0.113 ± 0.081.

On to Q56R, for which the abundance fitness is -0.078 ± 0.054.

For Q56K, the abundance fitness was -0.065 ± 0.096.

As to Q56C, the abundance fitness is 0.008 ± 0.082.

Regarding Q56F, the abundance fitness was -0.071 ± 0.11.

As to Q56W, the abundance fitness was -0.189 ± 0.077.

For the variant L12P, the abundance fitness is -0.394 ± 0.075.

Consider L12W, for which the abundance fitness is -0.384 ± 0.083.

Turning to L12S, the abundance fitness was -0.725 ± 0.088.

In the case of L12I, the abundance fitness was -0.272 ± 0.14.

For the variant L12H, the abundance fitness was -0.552 ± 0.13.

With M32H, the abundance fitness turned out to be 0.086 ± 0.11.

Turning to M32D, the abundance fitness is -0.057 ± 0.097.

Consider M32S, for which the abundance fitness amounted to 0.02 ± 0.065.

Consider M32W, for which the abundance fitness is -0.137 ± 0.07.

In the case of M32V, the abundance fitness is -0.054 ± 0.055.

Take M32P: the abundance fitness is -0.266 ± 0.081.

Regarding M32A, the abundance fitness is -0.036 ± 0.068.

For M32C, the abundance fitness is -0.098 ± 0.082.

With A34Q, the abundance fitness is -0.575 ± 0.27.

Regarding A34P, the abundance fitness is -1.04 ± 0.28.

In the case of A34E, the abundance fitness is -0.976 ± 0.12.

As to A34I, the abundance fitness was -0.76 ± 0.18.

As to A34S, the abundance fitness was -0.73 ± 0.093.

On to A34N, for which the abundance fitness is -0.781 ± 0.16.

A34G: the abundance fitness was -0.413 ± 0.054.

On to A34F, for which the abundance fitness was -0.919 ± 0.21.

As for A34M, the abundance fitness is -0.358 ± 0.11.

With V36Q, the abundance fitness was -0.73 ± 0.14.

On to V36D, for which the abundance fitness was -0.996 ± 0.15.

Regarding V36K, the abundance fitness is -0.843 ± 0.17.

With V36W, the abundance fitness is -0.833 ± 0.12.

Turning to K4D, the abundance fitness was -0.678 ± 0.13.

As for K4M, the abundance fitness is -0.169 ± 0.095.

Regarding K4R, the abundance fitness was -0.232 ± 0.061.

K4E: the abundance fitness was -0.2 ± 0.093.

As for K4P, the abundance fitness was -0.912 ± 0.16.

Turning to T33R, the abundance fitness was -0.088 ± 0.052.

As for T33S, the abundance fitness was determined as 0.012 ± 0.059.

Take T33Y: the abundance fitness was -0.184 ± 0.087.

With T33P, the abundance fitness was -1.03 ± 0.14.

Consider T33E, for which the abundance fitness is -0.377 ± 0.092.

F19C: the abundance fitness is -1.02 ± 0.14.

For F19I, the abundance fitness is -0.649 ± 0.27.

As to F19E, the abundance fitness is -0.706 ± 0.099.

Consider F19G, for which the abundance fitness is -0.925 ± 0.077.

As to Y13V, the abundance fitness was -0.897 ± 0.1.

As for Y13N, the abundance fitness worked out at 0 ± 0.1.

In the case of Y13P, the abundance fitness is -0.902 ± 0.13.

Take Y13A: the abundance fitness was -0.02 ± 0.069.

In the case of Y13T, the abundance fitness is -0.323 ± 0.089.

Take Y13G: the abundance fitness is -0.252 ± 0.061.

Consider Y13L, for which the abundance fitness is -0.15 ± 0.072.

As for T57A, the abundance fitness is 0.041 ± 0.065.

T57Q: the abundance fitness is 0.02 ± 0.14.

On to T57I, for which the abundance fitness is -0.036 ± 0.11.

As to T57E, the abundance fitness was found to be 0.114 ± 0.092.

Consider T57G, for which the abundance fitness was found to be 0.029 ± 0.055.

Consider E58S, for which the abundance fitness turned out to be 0.113 ± 0.11.

On to E58L, for which the abundance fitness was -0.183 ± 0.12.

As to E58W, the abundance fitness is -0.068 ± 0.24.

E58G: the abundance fitness is -0.042 ± 0.082.

As for E58D, the abundance fitness is -0.058 ± 0.081.

For E58F, the abundance fitness is -0.314 ± 0.24.

As for N43H, the abundance fitness was -0.073 ± 0.17.

As to N43L, the abundance fitness stood at 0.01 ± 0.064.

Take N43P: the abundance fitness is -0.563 ± 0.11.

As for N43T, the abundance fitness was 0.073 ± 0.078.

On to N43M, for which the abundance fitness was -0.108 ± 0.071.

With N43Y, the abundance fitness was 0.003 ± 0.15.

With D7L, the abundance fitness was -0.731 ± 0.077.

As for D7H, the abundance fitness is -0.764 ± 0.15.

On to D7C, for which the abundance fitness is -0.573 ± 0.14.

V24C: the abundance fitness was -0.949 ± 0.13.

On to V24R, for which the abundance fitness is -0.773 ± 0.061.

For the variant V24E, the abundance fitness is -1.04 ± 0.19.

Regarding V24K, the abundance fitness was -0.849 ± 0.17.

Turning to V24A, the abundance fitness was -0.939 ± 0.13.

Turning to V24M, the abundance fitness was -0.726 ± 0.1.

As to V24T, the abundance fitness is -0.863 ± 0.11.

Consider V24F, for which the abundance fitness is -0.22 ± 0.096.

K18I: the abundance fitness was -0.273 ± 0.12.

As for K18Q, the abundance fitness was -0.144 ± 0.086.

Regarding K18H, the abundance fitness was -0.179 ± 0.12.

Take K18F: the abundance fitness was -0.917 ± 0.26.

K18C: the abundance fitness is -0.188 ± 0.08.

With H28P, the abundance fitness is -0.001 ± 0.1.

For H28N, the abundance fitness was -0.006 ± 0.094.

Regarding H28C, the abundance fitness is -0.098 ± 0.077.

For H28E, the abundance fitness is -0.159 ± 0.082.

For the variant H28W, the abundance fitness is -0.871 ± 0.095.

As for H28S, the abundance fitness was -0.042 ± 0.066.

Turning to H28Q, the abundance fitness was -0.088 ± 0.13.

Consider Y41M, for which the abundance fitness was -0.086 ± 0.11.

Consider Y41K, for which the abundance fitness turned out to be 0.103 ± 0.088.

In the case of Y41V, the abundance fitness is -0.025 ± 0.062.

Turning to Y41R, the abundance fitness amounted to 0.108 ± 0.059.

Regarding Y41P, the abundance fitness is -0.446 ± 0.091.

Y41Q: the abundance fitness was determined as 0.105 ± 0.086.

Consider Y41D, for which the abundance fitness is 0.055 ± 0.083.

Regarding N51E, the abundance fitness is -0.272 ± 0.069.

For the variant N51I, the abundance fitness was -0.837 ± 0.13.

With N51Y, the abundance fitness was -0.678 ± 0.16.

N51F: the abundance fitness was -1.02 ± 0.19.

In the case of N51V, the abundance fitness was -0.925 ± 0.083.

In the case of N51L, the abundance fitness is -0.727 ± 0.071.

On to N51S, for which the abundance fitness is -0.205 ± 0.064.

As to W3H, the abundance fitness was -0.842 ± 0.21.

W3Q: the abundance fitness is -0.721 ± 0.4.

Consider W3S, for which the abundance fitness is -0.885 ± 0.1.

In the case of W3A, the abundance fitness was -0.634 ± 0.09.

For the variant W3I, the abundance fitness was -0.059 ± 0.13.

For the variant F38I, the abundance fitness was -0.852 ± 0.26.

For F38A, the abundance fitness was -0.878 ± 0.091.

Consider F38N, for which the abundance fitness was -0.802 ± 0.2.

Take F38E: the abundance fitness was -0.997 ± 0.13.

On to F38G, for which the abundance fitness was -0.845 ± 0.065.

E23R: the abundance fitness came to 0.032 ± 0.057.

For E23A, the abundance fitness was -0.257 ± 0.071.

Consider E23H, for which the abundance fitness came out at 0.071 ± 0.088.

With K53R, the abundance fitness was determined as 0.008 ± 0.06.

Regarding K53W, the abundance fitness was -0.242 ± 0.12.

Regarding K53H, the abundance fitness is -0.213 ± 0.11.

For K53D, the abundance fitness is -0.659 ± 0.092.

As for K53G, the abundance fitness was -0.711 ± 0.065.

On to K53P, for which the abundance fitness was -0.809 ± 0.15.

With K53N, the abundance fitness was -0.378 ± 0.087.
